Assay results from patent publication US20210155689A1 (SHANGHAI PHARMAEXPLORER, published 2021).
Residue numbers refer to the chain shown, from its start.

B1: 105F1E10 mouse-human chimeric antibody (antibody, V domains shown)
VH: EVQLQQSGPELVKPGASVKMSCRASGYTFTDFKMHWMKQSHGKSLEWIGYIAPNNGGTAYNQKFRGKATLTVNESSNTAYMELRSLTSEDSAVYYCVDWDDVDYWGQGTTLTVSS
VL: DIKMTQSPSSMYASLGERVTITCKASQDINSYLSWFQQKSGKSPKTLIYRANRLVDGVPSRFSGSGSGQDYSLTISSLEYEDMGIYYCLQYVEFPLTFGAGTKLELK
notes: also called mAb009-105F1E10
B2: 405B8H3 mouse-human chimeric antibody (antibody, V domains shown)
VH: QVQLQQSGAELVRPGASVTLSCKASGYTFTDYEMHWVKQTPVHGLEWIGATDPETGNSAYNQKFKGKAIMTADKSSSTAYMELRSLTSEDSAVYYCISTGWNDWGQGTSLTVSS
VL: B1 VL with S40P, N52D, V55L, E81G, V92D, L96Y, A100G, L106I
notes: also called mAb103-405B8H3
B3: 409D4E10 mouse-human chimeric antibody (antibody, V domains shown)
VH: B2 VH with Y27N, G56D, S58T, M70L, A72T, S98T, T99S
VL: B1 VL with S40P, V55L, V92N, L96Y, A100G, L106I
notes: also called mAb112-409D4E10
B4: 409B11E12 mouse-human chimeric antibody (antibody, V domains shown)
VH: B2 VH with P41T, G56S, N57Y, M70L, S98A
VL: B1 VL with I2L, S40P, V55L, V92D, L96Y, A100G, L106I
notes: also called mAb104-409B11E12
B5: 556F6B8 mouse-human chimeric antibody (antibody, V domains shown)
VH: RVQLKQSGPGLVQPSQSLSITCTVSGFSLIKYGVHWVRQSPGEGLEWLGVIWRGGITDYNAAFMSRLSITKDNSKSQVFFKMNSLQADDTAIYYCAKWDGPLAMDYWGQGTSVTVSS
VL: DIVMTQSHKFLSTSVGDRVSITCKASQDVGTTVAWYQQKPGQSPKLLIYWASTRHTGVPDRFTGSGSGTDFTLTISNVQSEDLADYFCQQYSSYPYTFGGGTKLEIK
notes: also called mAb123-556F6B8; 556F8B8
B6: 105F1E10 (LAG-3 mouse-human chimeric antibody) (antibody, V domains shown)
VH: B1 VH
VL: B1 VL
B7: 405B8H3 (LAG-3 mouse-human chimeric antibody) (antibody, V domains shown)
VH: B2 VH
VL: B1 VL with S40P, N52D, V55L, E81G, V92D, L96Y, A100G, L106I
notes: also called mouse-human chimeric antibody 405B8H3
B8: 409B11E12 (LAG-3 mouse-human chimeric antibody) (antibody, V domains shown)
VH: B2 VH with P41T, G56S, N57Y, M70L, S98A
VL: B1 VL with I2L, S40P, V55L, V92D, L96Y, A100G, L106I
B9: 409D4E10 (LAG-3 mouse-human chimeric antibody) (antibody, V domains shown)
VH: B2 VH with Y27N, G56D, S58T, M70L, A72T, S98T, T99S
VL: B1 VL with S40P, V55L, V92N, L96Y, A100G, L106I
B10: 556F6B8 (LAG-3 mouse-human chimeric antibody) (antibody, V domains shown)
VH: B5 VH
VL: B5 VL
notes: also called 556F8B8
B11: 405B8H3 (mouse antibody purified from hybridoma) (antibody, V domains shown)
VH: B2 VH
VL: B1 VL with S40P, N52D, V55L, E81G, V92D, L96Y, A100G, L106I
notes: also called mAb103-405B8H3; 405B81-13
B12: 105F1E10 (mouse antibody purified from hybridoma) (antibody, V domains shown)
VH: B1 VH
VL: B1 VL
notes: also called mAb009-105F1E10
B13: 409B11E12 (mouse antibody purified from hybridoma) (antibody, V domains shown)
VH: B2 VH with P41T, G56S, N57Y, M70L, S98A
VL: B1 VL with I2L, S40P, V55L, V92D, L96Y, A100G, L106I
notes: also called mAb104-409B11E12
B14: 409D4E10 (mouse antibody purified from hybridoma) (antibody, V domains shown)
VH: B2 VH with Y27N, G56D, S58T, M70L, A72T, S98T, T99S
VL: B1 VL with S40P, V55L, V92N, L96Y, A100G, L106I
notes: also called mAb112-409D4E10
B15: 556F6B8 (mouse antibody purified from hybridoma) (antibody, V domains shown)
VH: B5 VH
VL: B5 VL
notes: also called mAb123-556F6B8

Biological target: T1, monkey LAG-3 on cells (HEK293-cLAG-3 stable cell line) (monkey, UniProt P18627 24-525 (human entry))
T1 construct: Full-length monkey (Chinese monkey) LAG-3 gene expressed on HEK293 cells
T1 chain: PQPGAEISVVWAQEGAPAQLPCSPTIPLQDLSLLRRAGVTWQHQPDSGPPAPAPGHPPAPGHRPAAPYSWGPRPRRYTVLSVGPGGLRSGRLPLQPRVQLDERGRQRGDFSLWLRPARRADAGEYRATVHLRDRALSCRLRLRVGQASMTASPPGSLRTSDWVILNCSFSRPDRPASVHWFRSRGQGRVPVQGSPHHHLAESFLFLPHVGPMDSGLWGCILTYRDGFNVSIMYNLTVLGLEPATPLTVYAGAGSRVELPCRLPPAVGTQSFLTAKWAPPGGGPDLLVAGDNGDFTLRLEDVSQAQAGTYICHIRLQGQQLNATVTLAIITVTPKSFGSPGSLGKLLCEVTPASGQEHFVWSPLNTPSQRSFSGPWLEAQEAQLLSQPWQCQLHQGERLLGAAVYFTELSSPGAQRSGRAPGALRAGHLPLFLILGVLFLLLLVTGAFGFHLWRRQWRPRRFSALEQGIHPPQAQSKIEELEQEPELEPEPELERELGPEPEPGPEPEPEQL
Assay: FACS, HEK293-cLAG-3, antibody 200.000 nM
Source text: (§1) The pIRES plasmid with the monkey-derived full-length gene was transfected into the HEK293 cell line to construct a HEK293 stable cell line containing monkey LAG-3 (herein referred to as HEK293-cLAG-3 stable cell line). The HEK293-hLAG-3 stable cell line and HEK293-cLAG-3 stable cell line were expanded in a T-75 cell culture flask to a 90% confluence. The medium was aspirated, and the cells were washed with HBSS (Hanks' Balanced Salt Solution) 1-2 times, then treated with a enzyme-free cell dissociation fluid (Versene solution: Life technology) and the cells were collected. The cells were washed with HBSS buffer for 1-2 times. After counted, the cells were diluted with HBSS to 1-2×10⁶ cells per ml, added with 1% goat serum blocking solution, incubated on ice for 20-30 minutes, and then washed with HBSS for 2 times by centrifugation. The collected cells were suspended in the FACS buffer (HBSS+1% BSA) to 2×10⁶ cells/ml, added as 100 microliters per well to a 96-well FACS reaction plate, added with 100 microliters per well of the antibody sample to be tested, incubated on ice for 1-2 hours. The plate was washed twice with the FACS buffer by centrifugation, added with 100 microliters of fluorescent (Alexa 488)-labeled secondary antibodies per well, and incubated on ice for 0.5-1.0 hours. The plate was washed 2-3 times with FACS buffer by centrifugation, added with 100 μl fixative solution (4% Paraformaldehyde) per well to suspend the cells. 5-10 minutes later, it was washed 1-2 times with FACS buffer by centrifugation. The cells were suspended with 100 microliters of FACS buffer, FACS (FACSCalibur, BD) was used for detection and the results were analyzed.

In order of rising Mean fluorescence intensity:
1. B5  90.5
2. B1  94.5
3. B3  103
4. B2  108
5. B4  114

Biological target: T2, hFc tagged monkey LAG-3 protein (cLAG-3-hFc protein) (monkey; human)
T2 construct: Made in HEK293 cells; also called monkey LAG-3 extracellular domain protein; not shown: human IgG Fc fragment (hFc) of the pCpC vector
T2 chain: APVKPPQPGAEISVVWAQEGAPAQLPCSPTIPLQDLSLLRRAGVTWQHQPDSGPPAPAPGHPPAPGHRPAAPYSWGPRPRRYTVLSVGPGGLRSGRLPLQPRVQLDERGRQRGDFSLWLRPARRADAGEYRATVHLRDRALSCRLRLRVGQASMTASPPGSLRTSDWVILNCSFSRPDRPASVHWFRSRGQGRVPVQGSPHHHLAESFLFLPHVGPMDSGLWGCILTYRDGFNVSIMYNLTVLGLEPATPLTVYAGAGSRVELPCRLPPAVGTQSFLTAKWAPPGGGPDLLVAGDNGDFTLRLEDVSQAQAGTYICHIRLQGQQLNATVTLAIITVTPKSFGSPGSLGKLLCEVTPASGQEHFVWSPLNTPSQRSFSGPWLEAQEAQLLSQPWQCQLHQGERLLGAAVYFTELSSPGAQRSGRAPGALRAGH
Assay: ELISA, cLAG-3-hFc coated; 0.0007 nM
Experimental: The plate was sealed with plastic film and incubated overnight at 4° C. The plate was washed 2 times with the plate washing solution (PBS+0.01% Tween20) on the next day, and added with the blocking solution (PBS+0.01% Tween20+1% BSA) and blocked at room temperature for 1-2 hours. The blocking solution was poured out, and the plate was added with 50-100 μl of the antibody sample to be tested to each well, incubated at 37° C. for 1-2 hours, and washed 2-3 times with a plate washing solution (PBS+0.01% Tween20). HRP (horseradish peroxidase) labeled secondary antibody was added, and the plate was incubated at 37° C. for 1-2 hours, and washed 2-3 times with a plate washing solution (PBS+0.01% Tween20). 100 μl of TMB substrate was added to each well. After incubated at room temperature for 15-30 minutes, the plate was added with 100 μl of stop solution (1.0N HCl) to each well.

In order of falling OD450:
1. B9  0.27 OD450
2. B7  0.21 OD450
3. B10  0.21 OD450
4. B8  0.17 OD450
5. B6  0.16 OD450

Biological target: T1, monkey LAG-3 on cells (HEK293-cLAG-3 …)
Assay: FACS, HEK293-cLAG-3, antibody 0.064 nM
Source text: as §1

In order of rising Mean fluorescence intensity:
1. B1  3.54
2. B3  4.42
3. B5  4.45
4. B2  4.8
5. B4  4.95

What follows are binders tested against T3, human LAG-3 (full length, on the cell surface) (human, UniProt P18627 23-525) (assay: FACS, HEK293-hLAG-3; 8.000 nM).
T3 construct: Full-length human LAG-3 expressed on cells; also called HEK293-hLAG-3; HEK293 cells transfected with LAG-3 gene
T3 sequence: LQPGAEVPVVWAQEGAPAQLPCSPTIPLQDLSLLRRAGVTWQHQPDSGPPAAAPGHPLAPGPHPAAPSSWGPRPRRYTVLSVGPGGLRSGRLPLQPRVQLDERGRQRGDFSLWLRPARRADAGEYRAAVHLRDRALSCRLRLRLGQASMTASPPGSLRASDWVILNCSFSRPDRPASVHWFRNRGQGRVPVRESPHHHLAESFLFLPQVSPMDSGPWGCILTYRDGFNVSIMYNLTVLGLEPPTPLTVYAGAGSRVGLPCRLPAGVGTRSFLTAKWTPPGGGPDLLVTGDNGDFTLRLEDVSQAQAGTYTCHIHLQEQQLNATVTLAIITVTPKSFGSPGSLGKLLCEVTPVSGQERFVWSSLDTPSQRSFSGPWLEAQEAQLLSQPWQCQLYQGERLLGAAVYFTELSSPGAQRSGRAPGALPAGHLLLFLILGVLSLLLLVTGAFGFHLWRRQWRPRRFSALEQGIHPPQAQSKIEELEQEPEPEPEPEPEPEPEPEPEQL
Source text: as §1

In order of rising Mean fluorescence intensity:
1. B15  74.9 MFI
2. B13  112 MFI
3. B14  123 MFI
4. B12  235 MFI
5. B11  252 MFI
